Measurements as given in PMC7483473.

Biological target: mNeonGreen labeled metabotropic glutamate receptor 3, Q14832
Assay: stepwise photobleaching (subunit counting) of single complexes by TIRF; SPReAD: expressing cells co-plated with VSVG-U2OS cells (typically 10:1), fused at pH 5.5, syncytia fixed with 4% paraformaldehyde, room temperature; mGluR lines were HEK293T fused with U2OS
Conditions: remark: other sources report otherwise

B1: mNeonGreen labeled metabotropic glutamate receptor 3, Q14832 23-879 (receptor)
chain: LGDHNFLRREIKIEGDLVLGGLFPINEKGTGTEECGRINEDRGIQRLEAMLFAIDEINKDDYLLPGVKLGVHILDTCSRDTYALEQSLEFVRASLTKVDEAEYMCPDGSYAIQENIPLLIAGVIGGSYSSVSIQVANLLRLFQIPQISYASTSAKLSDKSRYDYFARTVPPDFYQAKAMAEILRFFNWTYVSTVASEGDYGETGIEAFEQEARLRNICIATAEKVGRSNIRKSYDSVIRELLQKPNARVVVLFMRSDDSRELIAAASRANASFTWVASDGWGAQESIIKGSEHVAYGAITLELASQPVRQFDRYFQSLNPYNNHRNPWFRDFWEQKFQCSLQNKRNHRRVCDKHLAIDSSNYEQESKIMFVVNAVYAMAHALHKMQRTLCPNTTKLCDAMKILDGKKLYKDYLLKINFTAPFNPNKDADSIVKFDTFGDGMGRYNVFNFQNVGGKYSYLKVGHWAETLSLDVNSIHWSRNSVPTSQCSDPCAPNEMKNMQPGDVCCWICIPCEPYEYLADEFTCMDCGSGQWPTADLTGCYDLPEDYIRWEDAWAIGPVTIACLGFMCTCMVVTVFIKHNNTPLVKASGRELCYILLFGVGLSYCMTFFFIAKPSPVICALRRLGLGSSFAICYSALLTKTNCIARIFDGVKNGAQRPKFISPSSQVFICLGLILVQIVMVSVWLILEAPGTRRYTLAEKRETVILKCNVKDSSMLISLTYDVILVILCTVYAFKTRKCPENFNEAKFIGFTMYTTCIIWLAFLPIFYVTSSDYRVQTTTMCISVSLSGFVVLGCLFAPKVHIILFQPQKNVVTHRLHLNRFSVSGTGTTYSQSSASTYVPTVCNGREVLDSTTSSL
In the case of B1, the fraction by stepwise photobleaching (dimer fraction, as the sentence seems to mean) is reported as 33.5%.
